Results from patent US20110281938, “APTAMERS TO TISSUE FACTOR PATHWAY INHIBITOR AND THEIR USE AS BLEEDING DISORDER THERAPEUTICS” (Baxter Healthcare S.A., published 2011).

Molecular target: T1, TFPI (tissue factor pathway inhibitor, full-length) (Homo sapiens, UniProt P10646 SEQ:1-276)
Test: competition; fails binding-competition criterion
Settings: tags: American Diagnostica 4500PC/4900PC, E. coli expressed
Method: Each molecule was evaluated for binding to tissue factor pathway inhibitor (TFPI) in a binding-competition assay. For these experiments, 10 nM human TFPI (American Diagnostica, Stamford, Conn., catalog #4500PC) was incubated with trace amounts of radiolabeled ARC17480 and 5000 nM, 1666.67 nM, 555.56 nM, 185.19 nM, 61.73 nM, 20.58 nM, 6.86 nM, 2.29 nM, 0.76 nM or 0.25 nM of unlabeled competitor aptamer. ARC17480 was included as a competitor in every experiment as a control. For each molecule, the percentage of radiolabeled ARC17480 bound at each competitor aptamer concentration was used for analysis. The percentage of radiolabeled ARC17480 bound was plotted as a function of aptamer concentration and fit to the equation y=(max/(1+x/IC₅₀))+int, where y=the percentage of radiolabeled ARC17480 bound, x=the concentration of aptamer, max=the maximum radiolabeled ARC17480 bound, and int=the y-intercept, to generate an IC₅₀ value for binding-competition. The IC₅₀ of each aptamer was compared to the IC₅₀ of ARC17480 that was evaluated in the same experiment. A substitution was considered tolerated in the binding-competition assay if the IC₅₀ of that molecule was not more than 5-fold greater than that of ARC17480 evaluated in the same experiment. Tolerated substitutions are indicated in Table 38 as meeting the assay criteria (“yes”) or not meeting the assay criteria (“no”).

T1 sequence (P10646 29-304): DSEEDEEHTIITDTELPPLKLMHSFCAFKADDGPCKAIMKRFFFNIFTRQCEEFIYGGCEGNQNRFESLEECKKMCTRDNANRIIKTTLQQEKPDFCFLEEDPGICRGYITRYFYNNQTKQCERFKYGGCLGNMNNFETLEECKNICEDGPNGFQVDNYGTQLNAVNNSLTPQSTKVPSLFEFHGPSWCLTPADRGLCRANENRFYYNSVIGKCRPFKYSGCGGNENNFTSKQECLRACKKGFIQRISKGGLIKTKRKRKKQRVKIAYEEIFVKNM

Binding signal, > 5 fold IC50 of ARC17480:
GGAAUAUACUUGGCUCGUUAGGGCGUAUAUA (mixed, 2'-OMe A/G/U, 2'-deoxy C, 3' idT) [ARC33135]
GGAAUAUACUUGGCUCGUUAGGUGCUAUAUA (mixed, 2'-OMe A/G/U, 2'-deoxy C, 3' idT) [ARC33138]
GGAAUAUACUUGGCUCGUUAGGUGGUAUAUA (mixed, 2'-OMe A/G/U, 2'-deoxy C, 3' idT) [ARC33137]
GGAAUAUACUUGGCUCGUUAGGUCGUAUAUA (mixed, 2'-OMe A/G/U, 2'-deoxy C, 3' idT) [ARC33136]
GGAAUAUACUUGGCUCGUUAUGCGUAUAUA (mixed, 2'-OMe A/G/U, 2'-deoxy C, 3' idT) [ARC33148]
GGAAUAUACUUGGCUCUUAGGUGCGUAUAUA (mixed, 2'-OMe A/G/U, 2'-deoxy C, 3' idT) [ARC33131]
GGAAUAUACUUGGCUCGUUGGUGCGUAUAUA (mixed, 2'-OMe A/G/U, 2'-deoxy C, 3' idT) [ARC33133]
GGAAUAUACUUGGCUCGUUAGUGCGUAUAUA (mixed, 2'-OMe A/G/U, 2'-deoxy C, 3' idT) [ARC33134]
GGAAUAUACUUGGCUCGUUAGGUGCGAUAUA (mixed, 2'-OMe A/G/U, 2'-deoxy C, 3' idT) [ARC33139]
GGAAUAUACUUGGCUCGUUAGGUGCGUUAUA (mixed, 2'-OMe A/G/U, 2'-deoxy C, 3' idT) [ARC33140]
GGAAUAUACGGCUCGUUAGGUGCGUAUAUA (mixed, 2'-OMe A/G/U, 2'-deoxy C, 3' idT) [ARC33145]
GGAAUAUACUUGGCUCGAGGUGCGUAUAUA (mixed, 2'-OMe A/G/U, 2'-deoxy C, 3' idT) [ARC33147]
GGAAUAUACUUCUCGUUAGGUGCGUAUAUA (mixed, 2'-OMe A/G/U, 2'-deoxy C, 3' idT) [ARC33146]

Molecular target: T1, TFPI (tissue factor pathway inhibitor, …)
Test: competition; fails binding-competition criterion
Settings: tags: American Diagnostica 4500PC/4900PC, E. coli expressed
Remark: another data set of the same source
Method: The substituted ARC17480 molecules were assayed for binding and function. The assays used for this evaluation were the calibrated automated thrombogram (CAT) assay, a dot-blot binding-competition assay and a FXa activity assay. The results of these assays are summarized in Table 40 and depicted in FIG. 147. A mutation was considered tolerated for activity if it met the criteria of at least two of the three assays that were carried out. Mutations that are tolerated (“yes”) and not tolerated (“no”) are identified in Table 40. The experimental details and the criteria used for each assay are described in the following paragraphs. The molecules described in this example were first tested in the CAT assay and the dot-blot binding-competition assay. In most cases, molecules were only tested in the FXa assay if there was a discrepancy between the results in the CAT assay and the dot-blot binding-competition assay.
Each molecule was evaluated for binding to tissue factor pathway inhibitor (TFPI) in a binding-competition assay. For these experiments, 10 nM human TFPI (American Diagnostica, Stamford, Conn., catalog #4900PC) was incubated with trace amounts of radiolabeled ARC17480 and 5000 nM, 1666.67 nM, 555.56 nM, 185.19 nM, 61.73 nM, 20.58 nM, 6.86 nM, 2.29 nM, 0.76 nM or 0.25 nM of unlabeled competitor aptamer. ARC17480 was included as a competitor in every experiment as a control. For each molecule, the percentage of radiolabeled ARC17480 bound at each competitor aptamer concentration was used for analysis. The percentage of radiolabeled ARC17480 bound was plotted as a function of aptamer concentration and fit to the equation y=(max/(1+x/IC₅₀))+int, where y=the percentage of radiolabeled ARC17480 bound, x=the concentration of aptamer, max=the maximum radiolabeled ARC17480 bound, and int=the y-intercept, to generate an IC₅₀ value for binding-competition. The IC₅₀ of each aptamer was compared to the IC₅₀ of ARC17480 that was evaluated in the same experiment. A mutation was considered tolerated in the binding-competition assay if the IC₅₀ of that molecule was not more than 5-fold greater than that of ARC17480 evaluated in the same experiment. Tolerated mutations are indicated in Table 40 as meeting the assay criteria (“yes”) or not meeting the assay criteria (“no”).

Binding signal, > 5 fold IC50 of ARC17480:
GGAAUAUACUUGGCUTGUUAGGUGCGUAUAUA (mixed, 2'-OMe A/G/U, dT16, 2'-deoxy C, 3' idT) [ARC33164]
GGAAUAUACUUGGCUCGUUAGGUGCGUUUAUA (mixed, 2'-OMe A/G/U, 2'-deoxy C, 3' idT) [ARC33176]
GGAAUAUACUUGGCUCGUUAGGCGCGUAUAUA (mixed, 2'-OMe A/G/U and mC23, other C 2'-deoxy, 3' idT) [ARC33171]
GGAAUAUACUUGGCUCGUUUGGUGCGUAUAUA (mixed, 2'-OMe A/G/U, 2'-deoxy C, 3' idT) [ARC33168]
GGAAUAUACUUGGCUCUUUAGGUGCGUAUAUA (mixed, 2'-OMe A/G/U, 2'-deoxy C, 3' idT) [ARC33165]
GGAAUAUACUUGGCUCGUUAGGUGCUUAUAUA (mixed, 2'-OMe A/G/U, 2'-deoxy C, 3' idT) [ARC33174]
GGAAUAUACUUGGCUCGUUAGGUGTGUAUAUA (mixed, 2'-OMe A/G/U, dT25, 2'-deoxy C, 3' idT) [ARC33173]
GGAAUAUACUUGGCUCGUUAGGUGCGCAUAUA (mixed, 2'-OMe A/G/U and mC27, other C 2'-deoxy, 3' idT) [ARC33175]
GGAAUAUACUUGGCUCGUUAGUUGCGUAUAUA (mixed, 2'-OMe A/G/U, 2'-deoxy C, 3' idT) [ARC33170]
GGAAUAUACUUGGCUCGUUAGGUUCGUAUAUA (mixed, 2'-OMe A/G/U, 2'-deoxy C, 3' idT) [ARC33172]
